In experiment [1] the target is T1, human ErbB-2 (HER2) (human, UniProt P04626 23-1255). The experiment in a line: cell-based or functional assay.
Experiment [2] addresses T1, human ErbB-2 (HER2). Description: antigen titration ELISA: coated monomeric HER2 (ECD-Erbb-2) varied about 0.019-2.5 µg/ml (x axis), IgG fixed at 10 µg/ml as the text says; readout OD450 [lower panel]. A general note: An ELISA detects its analyte on a solid surface through an enzyme-linked reagent.
Experimental: Wells of the ELISA plates were blocked with PBS (pH 7.2) containing 5% BSA for 1 hour at 37° C. Selected antibodies were tested in duplo at a concentration of 10 µg/ml diluted in PBS-2% BSA and allowed to bind for 2 hours at 25° C. As a control the procedure was performed simultaneously with an antibody specific for the coated antigens and a negative control antibody. The ELISA plates were washed 5 times with PBS-T (PBS-0.05% v/v Tween 20). Bound IgG was detected with 1:2000 diluted IIRP-conjugate (Goat anti-mouse IgG, BD Biosciences) and was allowed to bind for 2 hours at 25° C. The ELISA plates were washed 5 times with PBS-T (PBS-0.05% Tween 20) and bound IgG was detected by means of OD492 nm measurement.
The target in experiment [3] is T2, human ErbB-3 (HER3) (human, UniProt P21860 20-1342). The experiment in a line: cell-based or functional assay.
Another experiment concerns the target T3, ErbB2-Fc (RND systems) (UniProt P04626 23-652).
T3 construct: Bought protein; also called Fc-HER2; Her2-Fc; not shown: Fc part of the bought fusion protein
The experiment in a line: SPR (BIACORE T100), ErbB2-Fc on CM5 chip, bispecific as analyte, 1:1 monovalent model. Background: SPR reads the build-up and loss of mass on a sensor chip optically.

Experiment [4] addresses human HER2 and HER3 co-expressed on tumour cells (human, UniProt P04626 23-1255; P21860 20-1342). Description: cell-based or functional assay.
For experiment [5], the target named is T2, human ErbB-3 (HER3). Description: FACS on CHO-K1 cells with HER3 constructs; epitope group 3 = 'Reactivity to rat, cyno and human HER3' (Table 5).

Experimental for ErbB2-Fc (RND systems): BIACORE™ T100 (GE Healthcare, Uppsala. Sweden) was used to conduct all experiments described. Sensor surface preparation and interaction analyses were performed at 25° C. Buffer and BIACORE™ reagents were purchased from GE Healthcare. […] Running buffer was HBS (hepes-buffered saline): 10 mM HEPES pH 7.4, 150 mM NaCl, 0.005% Tween-20; 0.2 μm) filter-sterilized. The bispecific antibodies were diluted to 100, 50, 20, 10, 1 and 0.1 nM in HBIS and run at high (30 µl/min) flow rate over the antigen-coupled surface of the CM5 sensor chip. […] To determine the $kon$ and $koff$ values, the BIA evaluation software was used in conjunction with a model that takes into account that a monovalent molecule was coated to the sensor chip surface and that the ErbB3-Fc antigen was a bivalent molecule.

B1: PG2973 (antibody, IgG1, V domains shown)
VH: QVQLKQSGAELVRPGASVKLSCKASGYIFTGYYINWLRQRPGQGLEWIAKIYPGSGNTYYNEKFRGKATLTAEESSSTAYMQLSSLTSEDSAVYFCARGPHYDYDGPWFVYWGQGTLVTVSS
VL: not shown
Take B1: in the experiment with human ErbB-2 (HER2) [1], the “HRG dependent MCF-7 proliferation assay, % activity compared to #Ab6, 1 µg/ml IgG” value was found to be 58% and the “SKBR-3 proliferation assay, % activity compared to trastuzumab, 1 µg/ml IgG” value (shortened to “SKBR-3 proliferation assay, % activity”) was 49%.

B2: PG2930 (antibody, IgG1, V domains shown)
VH: EVQLQQSGAELVKPGASVMMSCKVSGYTFTSYPIAWMKQVHGKSLEWIGNFHPYSDDTKYNENFKGKATLTVEKSSSTVYLELSRLTSDDSAVYYCARSNPLYYFAMDYWGQGTSVTVSS
VL: not shown
notes: Monospecific IgG1; also called MF2930; copies: 2 + 2
In the case of B2, the concentration for a half-maximal effect (EC50 (read off the curve)) with human ErbB-2 (HER2) [2] is roughly 0.7 µg/mL. In the experiment with human ErbB-2 (HER2) [1], the “HRG dependent MCF-7 proliferation assay, % activity compared to #Ab6, 1 µg/ml IgG” value worked out at 7% and the “SKBR-3 proliferation assay, % activity” value was 0%.

B3: #Ab6 (antibody, V domains shown)
VH: EVQLLESGGGLVQPGGSLRLSCAASGFTFSHYVMAWVRQAPGKGLEWVSSISSSGGWTLYADSVKGRFTISRDNSKNTLYLQMNSLRAEDTAVYYCTRGLKMATIFDYWGQGTLVTVSS
VL: QSALTQPASVSGSPGQSITISCTGTSSDVGSYNVVSWYQQHPGKAPKLIIYEVSQRPSGVSNRFSGSKSGNTASLTISGLQTEDEADYYCCSYAGSSIFVIFGGGTKVTVL
In the case of B3, in the experiment with human ErbB-3 (HER3) [3], the “BxPC3 % Inhibition” value was -7% and the “MCF-7 IC50 (pM), HRG dependent proliferation” value (from here on “MCF-7 IC50 (pM)”) stood at 504 pM.

B4: PB3448 (MF1849xMF3178) (bispecific antibody, IgG1, V domains shown)
VH 1: QVQLVESGGGVVQPGRSLRLSCAASGFTFSSYGMHWVRQAPGKGLEWVAVISYDGSNKYYADSVKGRFTISRDNSKNTLYLQMNSLRAEDTAVYYCAKGDYGSYSSYAFDYWGQGTLVTVSS
VH 2: not shown
VL: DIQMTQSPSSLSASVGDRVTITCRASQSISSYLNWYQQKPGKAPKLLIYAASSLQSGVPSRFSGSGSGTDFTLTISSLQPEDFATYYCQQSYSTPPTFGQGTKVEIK
notes: IgG1 bispecific with CH3 heterodimerisation mutations
In the experiment with ErbB2-Fc (RND systems), B4 returned a dissociation constant Kd of 5.4 nM. In experiment [4], the “BxPC3 % Inhibition” value is -22% and the “MCF-7 IC50 (pM)” value stood at 371 pM.

B5: PB3566 (MF3004xMF3178) (bispecific antibody, IgG1, V domains shown)
VH 1: QVQLKQSGAELVRPGASVKLSCKASGYTFTGYYINWVKQRPGQGLEWIARIYPGSGYTYYNEKFKGKATLTAEESSSTAYMHLSSLTSEDSAVYFCARPHYGYDDWYFGVWGTGTTVTVSS
VH 2: not shown
VL: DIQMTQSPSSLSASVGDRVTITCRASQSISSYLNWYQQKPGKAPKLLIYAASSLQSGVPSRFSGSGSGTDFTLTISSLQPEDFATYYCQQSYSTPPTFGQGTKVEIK
For the molecule B5, in experiment [4], the “BxPC3 % Inhibition” value is -20% and the “MCF-7 IC50 (pM)” value was found to be 7.9 pM.

B6: PG3004 (antibody, IgG1, V domains shown)
VH: QVQLKQSGAELVRPGASVKLSCKASGYTFTGYYINWVKQRPGQGLEWIARIYPGSGYTYYNEKFKGKATLTAEESSSTAYMHLSSLTSEDSAVYFCARPHYGYDDWYFGVWGTGTTVTVSS
VL: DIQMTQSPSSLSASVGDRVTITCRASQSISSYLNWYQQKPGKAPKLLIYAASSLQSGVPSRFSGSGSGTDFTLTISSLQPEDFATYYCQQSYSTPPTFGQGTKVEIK
Take B6: in the experiment with human ErbB-2 (HER2) [1], the “HRG dependent MCF-7 proliferation assay, % activity compared to #Ab6, 1 µg/ml IgG” value was 56% and the “SKBR-3 proliferation assay, % activity” value was found to be 49%.

B7: PG3099 (antibody, IgG1, V domains shown)
VH: EVQLQQPGAELVRPGTSVKLSCKASGYTFTSYWMHWVKQRPGQGLEWIGILDPSDSYTTYNQKFKGKATLTVDTSSSIAYMQLSSLTSEDSALYYCARGGDYDEGGAMDYWGQGTSVTVSS
VL: not shown
notes: Monospecific IgG1; also called MF3099; copies: 2 + 2
As to B7, the binding result with human ErbB-3 (HER3) [5] was “binds”.

A word on the EC50 (read off the curve): it is the concentration needed to bring the measured effect to its halfway point. The term Kd denotes a measure of binding affinity in units of concentration. A lower Kd goes with higher affinity.

(Values after patent US11279770 (MERUS N V, dated 2022).)
